Targets include HLA-A*33:01; HLA-A*11:01; HLA-A*03:01; HLA-A*68:01; HLA-A*31:01.
Assay in all cases: IEDB peptide-MHC binding, purified MHC/competitive/radioactivity; filed as Kd, often an IC50 or EC50 that approximates it; ≥ and ≤ were set here for values at or beyond the usual limits of such assays
[1] abbreviates: source organism: SARS coronavirus Tor2.
Where [2] appears, read: source organism: Dengue virus 3 Martinique/1243/1999.
Where [3] appears, read: source organism: Vaccinia virus WR.
Where [4] appears, read: source organism: Dengue virus 2 Jamaica/1409/1983.
Setting [5] is: source organism: Lassa virus GA391.
Setting [6] is: source organism: Dengue virus 1 Brazil/97-11/1997.
The mark [7] stands for this setting: source organism: Vaccinia virus Copenhagen.
Setting [8] is: source organism: Dengue virus 4 Philippines/H241/1956.

What is called Kd is the concentration at which binding is half-saturated. Take IVFVCVEYY: the Kd in the test with HLA-A*33:01 (setting [1]) amounted to 844 nM; with HLA-A*11:01 (setting [1]), 41 nM; with HLA-A*03:01 (setting [1]) it was 49.7 nM; in the test with HLA-A*68:01 (setting [1]), 23 nM; with HLA-A*31:01 (setting [1]), 112 nM.

As for ALAYYNNSK, the Kd in the test with HLA-A*33:01 (setting [1]) was not below 45900 nM; with HLA-A*11:01 (setting [1]), 29 nM; in the test with HLA-A*03:01 (setting [1]) it was 44.5 nM; with HLA-A*68:01 (setting [1]), 832 nM; with HLA-A*31:01 (setting [1]), 7570 nM.

Consider KTQVGVGVQK, for which the Kd with HLA-A*11:01 (setting [2]) was determined as 59.5 nM.

As to FMTLVPVLEK, the dissociation constant (Kd) in the test with HLA-A*33:01 (setting [3]) came to 20 nM; with HLA-A*11:01 (setting [3]) it was 3.96 nM; with HLA-A*03:01 (setting [3]) it was 82.6 nM; with HLA-A*68:01 (setting [3]), 2 nM; with HLA-A*31:01 (setting [3]), 73.3 nM.

For AIVCRFDTR, the Kd with HLA-A*33:01 (setting [1]) was 329 nM; in the test with HLA-A*11:01 (setting [1]), 1210 nM; with HLA-A*03:01 (setting [1]), 4170 nM; with HLA-A*68:01 (setting [1]), 563 nM; with HLA-A*31:01 (setting [1]) it was 133 nM.

Turning to AVQTKPGLFK, the Kd with HLA-A*11:01 (setting [4]) came out at 37.9 nM; with HLA-A*03:01 (setting [4]), 16.6 nM.

On to LMSIISTFH, for which the Kd is not below 77700 nM with HLA-A*33:01 (setting [5]); 11200 nM in the test with HLA-A*11:01 (setting [5]); 2230 nM in the test with HLA-A*03:01 (setting [5]); 3160 nM with HLA-A*68:01 (setting [5]); 481 nM with HLA-A*31:01 (setting [5]).

Regarding IMVASDVCKK, the Kd stood at 7130 nM in the test with HLA-A*33:01 (setting [3]); 53.3 nM with HLA-A*11:01 (setting [3]); 16.9 nM in the test with HLA-A*03:01 (setting [3]); 74.4 nM with HLA-A*68:01 (setting [3]); 270 nM in the test with HLA-A*31:01 (setting [3]).

Turning to YLALLAAFK, the Kd in the test with HLA-A*03:01 (setting [4]) was 1.32 nM; in the test with HLA-A*68:01 (setting [4]) it was 18.4 nM.

For RLYECLYRNR, the dissociation constant (Kd) with HLA-A*33:01 (setting [1]) was 2460 nM; with HLA-A*11:01 (setting [1]), 596 nM; with HLA-A*03:01 (setting [1]), 6.91 nM; with HLA-A*68:01 (setting [1]), 229 nM; in the test with HLA-A*31:01 (setting [1]), 2.08 nM.

For the sequence AGLAFSIMK, in the test with HLA-A*11:01 (setting [2]), the Kd was 13.8 nM.

Turning to PFLALGFFLR, the results for the dissociation constant Kd with HLA-A*33:01 (setting [2]) and with HLA-A*31:01 (setting [2]) were 286 nM and 186 nM, respectively.

Consider TLLSLTFIK, for which the dissociation constant Kd with HLA-A*11:01 (setting [6]) turned out to be 12.3 nM; with HLA-A*03:01 (setting [6]), 1.36 nM.

For SLAIKNYYRK, the Kd in the test with HLA-A*33:01 (setting [7]) was found to be 1180 nM; with HLA-A*11:01 (setting [7]) it was 10.6 nM; with HLA-A*03:01 (setting [7]) it was 35.3 nM; with HLA-A*68:01 (setting [7]), 1770 nM; in the test with HLA-A*31:01 (setting [7]), 297 nM.

As to NFIPIIYSK, the Kd in the test with HLA-A*33:01 (setting [3]) was found to be 25.6 nM; with HLA-A*11:01 (setting [3]), 212 nM; with HLA-A*03:01 (setting [3]), 8660 nM; with HLA-A*68:01 (setting [3]) it was 76.9 nM; with HLA-A*31:01 (setting [3]) it was 13.9 nM.

As for SMGFKVTTR, the equilibrium dissociation constant (Kd) in the test with HLA-A*33:01 (setting [3]) is 166 nM; in the test with HLA-A*11:01 (setting [3]) it was 4730 nM; with HLA-A*03:01 (setting [3]), 5010 nM; in the test with HLA-A*68:01 (setting [3]) it was 1270 nM; in the test with HLA-A*31:01 (setting [3]) it was 1.94 nM.

In the case of KTNCCRFQEK, the Kd with HLA-A*33:01 (setting [1]) was not below 37700 nM; with HLA-A*11:01 (setting [1]), 33.3 nM; in the test with HLA-A*03:01 (setting [1]), 38.3 nM; with HLA-A*68:01 (setting [1]), 4220 nM; with HLA-A*31:01 (setting [1]), 50.5 nM.

As to LSKDKMDSFK, the Kd with HLA-A*33:01 (setting [3]) was 304 nM; with HLA-A*11:01 (setting [3]), 15 nM; with HLA-A*03:01 (setting [3]), 25.1 nM; with HLA-A*68:01 (setting [3]), 1.46 nM; with HLA-A*31:01 (setting [3]) it was 27.8 nM.

PSVNEYHMLK: the Kd was found to be 11600 nM with HLA-A*33:01 (setting [3]); 13.7 nM in the test with HLA-A*11:01 (setting [3]); 10.2 nM with HLA-A*03:01 (setting [3]); 469 nM in the test with HLA-A*68:01 (setting [3]); 408 nM with HLA-A*31:01 (setting [3]).

For the sequence NMSFRDLGR, in the test with HLA-A*33:01 (setting [4]), the Kd came out at 8.95 nM.

LILNFLDWIK: the Kd was determined as 7300 nM in the test with HLA-A*33:01 (setting [3]); 9.27 nM in the test with HLA-A*11:01 (setting [3]); 25.1 nM in the test with HLA-A*03:01 (setting [3]); 165 nM with HLA-A*68:01 (setting [3]); 163 nM with HLA-A*31:01 (setting [3]).

As to HLKCKVRMEK, the dissociation constant (Kd) with HLA-A*03:01 (setting [8]) turned out to be 55.4 nM.

On to RIGTAATKRY, for which the Kd with HLA-A*33:01 (setting [3]) was not below 70000 nM; in the test with HLA-A*11:01 (setting [3]), not below 69800 nM; with HLA-A*03:01 (setting [3]), 1250 nM; with HLA-A*68:01 (setting [3]) it was not below 59600 nM; in the test with HLA-A*31:01 (setting [3]), not below 70000 nM.

As for EITHHAVSR, the dissociation constant Kd with HLA-A*33:01 (setting [2]) is 89.8 nM; in the test with HLA-A*68:01 (setting [2]), 24.1 nM.

On to MGITAEWLWR, for which, in the test with HLA-A*31:01 (setting [2]), the Kd worked out at 88.5 nM.

Regarding KSSQRDTILK, in the test with HLA-A*11:01 (source organism: Mammarenavirus brazilense), the Kd was found to be 33.2 nM.

Turning to MVEPWLSSK, in the test with HLA-A*11:01 (setting [8]), the Kd is 648 nM.

As to GMMVLKIVR, the dissociation constant (Kd) in the test with HLA-A*31:01 (setting [4]) was 11.3 nM.

Regarding KEFKDFAAGR, the Kd with HLA-A*31:01 (setting [2]) was 405 nM.

Regarding VTFKVPHAK, the Kd with HLA-A*11:01 (setting [8]) came out at 53.2 nM; with HLA-A*03:01 (setting [8]), 10.2 nM; with HLA-A*68:01 (setting [8]), 177 nM.

Turning to KFQADSPKR, the Kd with HLA-A*31:01 (setting [6]) is 39.9 nM.

With SAAIDGEYR, the Kd in the test with HLA-A*68:01 (setting [6]) was 41.6 nM.

For RILQRGLLGR, the Kd with HLA-A*03:01 (setting [6]) was 16.4 nM; in the test with HLA-A*31:01 (setting [6]) it was not below 70000 nM.

On to AMRCVGIGNR, for which the Kd with HLA-A*31:01 (setting [6]) came out at 872 nM.

In the case of ETLTSVFQK, in the test with HLA-A*11:01 (source organism: Homo sapiens), the dissociation constant Kd is 11 nM.

With FLSGKGLGK, the Kd in the test with HLA-A*03:01 (setting [6]) came to 6.26 nM.

Regarding YMPSMKRFRR, the Kd in the test with HLA-A*33:01 (setting [4]) came to 10.7 nM; in the test with HLA-A*68:01 (setting [4]) it was 1110 nM; with HLA-A*31:01 (setting [4]), 10.2 nM.

Consider STSQETWNR, for which the dissociation constant (Kd) in the test with HLA-A*68:01 (setting [6]) was 68.8 nM.

With TILIKVEYK, in the test with HLA-A*11:01 (setting [2]), the Kd worked out at 1250 nM.

Regarding KSEFQIYKK, the dissociation constant (Kd) with HLA-A*11:01 (setting [4]) stood at 244 nM.

The values are drawn from the Immune Epitope Database (IEDB).
